Key:
eGFP-CaMKII = eGFP-CaMKII (UniProt P11275); assay: number and brightness
[1] = target: nonlabeled αCaMKII (Ca2+/CaM-dependent protein kinase II, alpha) (UniProt P11275); assay: number and brightness

Sequence of eGFP-CaMKII (P11275 whole entry): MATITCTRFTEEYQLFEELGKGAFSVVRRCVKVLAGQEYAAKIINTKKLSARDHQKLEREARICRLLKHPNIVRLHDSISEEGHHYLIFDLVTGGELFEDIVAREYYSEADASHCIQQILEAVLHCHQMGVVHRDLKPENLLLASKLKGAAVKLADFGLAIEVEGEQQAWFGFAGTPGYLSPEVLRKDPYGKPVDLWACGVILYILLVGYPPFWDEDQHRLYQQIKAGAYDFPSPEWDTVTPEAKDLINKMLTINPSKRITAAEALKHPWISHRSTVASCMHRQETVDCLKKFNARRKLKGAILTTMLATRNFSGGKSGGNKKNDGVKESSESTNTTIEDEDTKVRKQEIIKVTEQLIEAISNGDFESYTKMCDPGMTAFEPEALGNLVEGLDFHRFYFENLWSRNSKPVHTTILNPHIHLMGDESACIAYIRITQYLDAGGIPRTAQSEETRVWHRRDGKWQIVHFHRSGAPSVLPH

| stoichiometry N (eGFP-CaMKII) | molecular brightness, times that of eGFP (times that of eGFP) [1] | Substance |
| --- | --- | --- |
| > 3 | – | eGFP-CaMKII (from UniProt P11275 1-478) (enzyme) |
| – | 3 | enhanced green fluorescent protein (eGFP)-CaM (from UniProt P0DP23 1-149) (natural protein) |
